Laboratory results: US20220332804A1 (CSL INNOVATION, published 2022)
Changes are numbered by the printed parent chain.

What was measured:
human C2 R434A = target: T1, human C2 R434A (human, UniProt P06681 21-752); test: SPR; KD relative to WT C2;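 also: biacore SPR at 37 °C, anti-C2 mAbs captured on an anti-human IgG chip, alanine or serine C2 surface mutants tested, KD from 1:1 fit compared with wild-type C2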
T1 sequence: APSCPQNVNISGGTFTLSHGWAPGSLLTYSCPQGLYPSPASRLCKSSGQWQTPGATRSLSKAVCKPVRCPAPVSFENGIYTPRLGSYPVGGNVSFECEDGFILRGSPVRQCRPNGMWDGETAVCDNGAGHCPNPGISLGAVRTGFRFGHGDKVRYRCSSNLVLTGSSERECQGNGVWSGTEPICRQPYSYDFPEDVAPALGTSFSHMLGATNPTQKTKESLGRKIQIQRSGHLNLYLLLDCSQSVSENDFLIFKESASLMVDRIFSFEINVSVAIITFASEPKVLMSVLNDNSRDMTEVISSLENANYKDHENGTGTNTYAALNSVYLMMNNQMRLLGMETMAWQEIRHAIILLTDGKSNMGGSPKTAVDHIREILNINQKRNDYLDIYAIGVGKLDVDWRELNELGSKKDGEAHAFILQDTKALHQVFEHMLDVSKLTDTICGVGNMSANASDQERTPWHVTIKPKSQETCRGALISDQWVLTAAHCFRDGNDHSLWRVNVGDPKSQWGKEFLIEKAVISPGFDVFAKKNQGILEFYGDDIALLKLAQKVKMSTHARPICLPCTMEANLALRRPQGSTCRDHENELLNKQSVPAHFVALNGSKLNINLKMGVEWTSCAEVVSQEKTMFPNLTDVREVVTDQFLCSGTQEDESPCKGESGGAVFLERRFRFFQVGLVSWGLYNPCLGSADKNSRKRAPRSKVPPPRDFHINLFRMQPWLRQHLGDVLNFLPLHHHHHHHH

human complement C2 = target: T2, human complement C2 (human, UniProt P06681 21-752); test: SPR, mAb captured, huC2 analyte, pH 6
T2 construct: Recombinant full-length human C2 with C-terminal 8x His tag, purified from Expi293F supernatant; also called human C2; huC2
T2 sequence: T1 sequence with A414R

human C2 S278A = target: T3, human C2 S278A (human, UniProt P06681 21-752); test: SPR, antibody captured, C2 as analyte;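 also: biacore at 37 °C, anti-C2 mAbs held by immobilised goat anti-human IgG, C2 alanine or serine mutants injected, double-referenced sensorgrams fitted to a 1:1 kinetic or steady-state model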
T3 sequence: T1 sequence with S258A, A414R
Method: (§1) Surface plasmon resonance (SPR, Biacore) was used for all binding affinity analyses. In brief, goat anti-human IgG was directly immobilised onto the carboxymethyl dextran surface of CM5 sensorchips to approximately 12,000 RU using standard NHS/EDC chemistry at pH 5. The immobilised antibody surface was pre-conditioned with ten injections of polyclonal human IgG (Privigen 60 s) prepared at 1 μg/mL. Ligands (anti-C2 mAbs) were captured at the beginning of each cycle as described below. An adjacent spot or flow cell in which only Polyclonal IgG was capture was used as a reference surface. The goat anti-human IgG Fc antibody surface was regenerate in 100 mM H3PO4, injected for 45 seconds at the end of each cycle. Experiments were performed at 37° C. and the flow rate of each experiment was kept constant at 30 μL/min.
(§2) Sensogram data was double-referenced against a reference anti-IgG surface (i.e. minus anti-C2 mAb) and blank buffer injections obtained within each experiment. The binding data was fit to 1:1 (kinetic or steady-state) model using local Rmax and null refraction index (RI=0) when appropriate. Buffers and solutions were filtered (0.22 μm) prior to use.

human C2 D282A = target: T4, human C2 D282A (human, UniProt P06681 21-752); test: SPR, antibody captured, C2 as analyte;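 also: biacore at 37 °C, anti-C2 mAbs held by immobilised goat anti-human IgG, C2 alanine or serine mutants injected, double-referenced sensorgrams fitted to a 1:1 kinetic or steady-state model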
T4 sequence: T1 sequence with D262A, A414R
Method: as §1, §2

B1: RF16-214 (antibody, V domains shown)
VH: EVQLLESGGGLVQPGGSLRLSCAASGFTFSWYQMMWVRQAPGKGLEWVSRIYPSGGGTAYADSVKGRFTISRDNSKNTLYLQMNSLRAEDTAVYYCARDAGYGDNWGQGTLVTVSS
VL: QSALTQPPSVSVSPGQTASITCSGDKLGEKYASWYQQKAGQSPVMVIYQDRKRPSGIPERFSGSNSGNTATLTISGTQAMDEADYYCQAWDTRAVVFGGGTKLTVLG
Question: With B1 as the binder, how does the Fold diff (human C2 R434A) read?
Answer: 7 fold

B2: RF16-226 (antibody)
heavy: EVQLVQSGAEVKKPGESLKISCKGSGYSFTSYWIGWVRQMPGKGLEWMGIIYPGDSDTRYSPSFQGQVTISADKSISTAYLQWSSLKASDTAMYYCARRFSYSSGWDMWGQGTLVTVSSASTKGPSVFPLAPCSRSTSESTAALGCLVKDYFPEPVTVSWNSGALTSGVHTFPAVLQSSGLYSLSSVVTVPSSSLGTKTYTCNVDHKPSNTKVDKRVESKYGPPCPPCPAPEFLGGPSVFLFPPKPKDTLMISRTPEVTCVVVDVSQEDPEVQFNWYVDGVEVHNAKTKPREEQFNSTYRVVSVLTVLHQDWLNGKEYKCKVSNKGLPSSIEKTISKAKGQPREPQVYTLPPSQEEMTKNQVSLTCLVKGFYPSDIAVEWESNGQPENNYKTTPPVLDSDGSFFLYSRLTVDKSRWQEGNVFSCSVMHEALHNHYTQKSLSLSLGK
light: SYELTQPPSVSVSPGQTARITCSGDALTSKYVAWYQQKSGLAPLLVIYEDTRRPSGIPAKFSGSSSGSVATLTISGAHGDDEADYYCYSTDASGHQRVFGGGTKLTVLSQPKAAPSVTLFPPSSEELQANKATLVCLISDFYPGAVTVAWKADGSPVKAGVETTKPSKQSNNKYAASSYLSLTPEQWKSHRSYSCQVTHEGSTVEKTVAPTECS
Question: With B2 as the binder, how does the Kd (human complement C2) read?
Answer: ~80 nM

B3: RF16-242 (antibody, human IgG4 S228P, lambda, V domains shown)
VH: EVQLLQSGAEVKKPGESLKISCKGSGYSFTSYWIGWVRQMPGKGLEWMGIIYPGDSDTRYSPSFQGQVTISADKSISTAYLQWSSLKASDTAMYYCARRGHYGDYFDYWGQGTLVTVSS
VL: SYELTQPPSVSVSPGQTARITCSGDALPKKYAYWYHQKSGQAPVLVIYEDRRRPSEIPERFSGSSSGTMATLTITGAQVEDEGVYFCYSRDRAGNQRVFGGGTQLTVLG
notes: pH-dependent anti-C2 antibody from a phage display library
Question: B3 was tested. Which Kd (human C2 S278A) did it give?
Answer: 6.5 nM

Question: What about the Kd (human C2 D282A) of the same binder?
Answer: 8 nM
